The values that follow come from paper PMC4838890, “Dynamic and flexible H3K9me3 bridging via HP1β dimerization establishes a plastic state of condensed chromatin” (Nature Communications, 2016).

For one experiment, the target named is HP1β (Homo sapiens) (UniProt P83916). The conditions noted are these: cited from earlier work.
The target of experiment [1] is H3K9me3 oligonucleosomes (12-mer oligonucleosomal arrays) (Xenopus laevis). Put plainly: co-sedimentation; chromatin coprecipitation with oligonucleosomes reconstituted to different saturation (0.8:1.0, 1.0:1.0, 1.0:1.2 octamers to positioning sequences); saturating protein concentrations; Coomassie bands quantified in relation to input.
The target of experiment [2] is H3KC9me3 mononucleosome (Xenopus laevis). The experiment is described as follows: ITC; 1.8 mM hHP1β injected into 60 μM H3 peptides, nucleosomes or oligonucleosomal arrays; 25°C; 10 mM triethanolamine pH 7.5, 20 mM NaCl, 0.1 mM EDTA; apparent; one set of identical sites. Background: In ITC the heat of successive injections is recorded.
The target of experiment [3] is free H3K9me3 tail peptide. The description is as above.
For experiment [4], the target named is H3KC9me3 mononucleosome (Xenopus laevis). Put plainly: ITC; 1.8 mM hHP1β injected into 60 μM H3 peptides, nucleosomes or oligonucleosomal arrays; 25°C; 10 mM triethanolamine pH 7.5, 150 mM NaCl, 0.1 mM EDTA; apparent; one set of identical sites.
Experiment [5] deals with H3KC9me3 oligonucleosomes (12-mer oligonucleosomal arrays) (Xenopus laevis). The description is as above.
In experiment [6] the target is free H3K9me3 tail peptide. Described as above.
The target of experiment [7] is H3K9me3 mononucleosome (Xenopus laevis). Put plainly: SPR; biotinylated ligands on streptavidin (SA) chips, hHP1β proteins injected; 298 K; 10 mM triethanolamine pH 7.5, 150 mM NaCl, 0.1 mM EDTA, 1 mM DTT, 0.005% Tween-20; steady-state analysis; apparent. A general note: Surface plasmon resonance follows binding to a sensor surface in real time, without labels.
For experiment [8], the target named is H3K9me3 oligonucleosomes (12-mer oligonucleosomal arrays) (Xenopus laevis).
Experiment [9] concerns the target H3KC9me3 tail peptide. Put plainly: ITC; 1.8 mM hHP1β injected into 60 μM H3 peptides, nucleosomes or oligonucleosomal arrays; 25°C; 10 mM triethanolamine pH 7.5, 20 mM NaCl, 0.1 mM EDTA; apparent; one set of identical sites.
Experiment [10] deals with H3KC9me3 tail peptide. The experiment is described as follows: ITC; 1.8 mM hHP1β injected into 60 μM H3 peptides, nucleosomes or oligonucleosomal arrays; 25°C; 10 mM triethanolamine pH 7.5, 150 mM NaCl, 0.1 mM EDTA; apparent; one set of identical sites.

Usually stoichiometry N stands for a count of units in the complex or per binding partner.

human HP1β wild type (hHP1β WT), sequence (P83916 whole entry): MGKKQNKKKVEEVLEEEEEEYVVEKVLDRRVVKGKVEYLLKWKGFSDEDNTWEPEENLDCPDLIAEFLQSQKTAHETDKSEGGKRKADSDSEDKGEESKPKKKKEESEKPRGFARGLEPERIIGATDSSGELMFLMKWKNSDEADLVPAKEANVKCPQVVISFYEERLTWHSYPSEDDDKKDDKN
Swi6, sequence (P40381 whole entry): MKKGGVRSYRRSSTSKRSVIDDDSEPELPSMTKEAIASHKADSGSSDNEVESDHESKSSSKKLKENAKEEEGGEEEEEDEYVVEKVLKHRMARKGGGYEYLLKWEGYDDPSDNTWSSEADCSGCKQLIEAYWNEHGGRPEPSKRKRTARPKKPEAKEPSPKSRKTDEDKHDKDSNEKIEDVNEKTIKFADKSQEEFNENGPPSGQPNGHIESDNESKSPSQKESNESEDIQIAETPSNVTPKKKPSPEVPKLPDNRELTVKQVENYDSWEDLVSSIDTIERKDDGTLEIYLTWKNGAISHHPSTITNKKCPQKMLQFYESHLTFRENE
HP1β, sequence (P83916 whole entry): as the sequence (P83916 whole entry) above

As for HP1β (from UniProt P83916), in the experiment with HP1β (Homo sapiens), the Kd is under 1 nM.

Take “Swi6 (from UniProt P40381 1-328) (natural protein)”: the stoichiometry N (molecules per nucleosome) in experiment [1] stood at 4.

As for “hHP1β I161A (from UniProt P83916 1-185) (natural protein)”, the Kd was 223 µM in experiment [2]; 1100 nM in experiment [3]; 58 µM in [4]; 132 µM in experiment [5]; 3.4 µM in [6]; 5.2 µM in experiment [7]. The stoichiometry N in [2] amounted to 1.1; in experiment [3], 1; in [4], 1.2; in experiment [5], 1.1; in experiment [6] it was 0.9.

For the substance “hHP1β chromo domain (CD) (domain or fragment)”, the stoichiometry N in [6] turned out to be 1.1.

Substance “human HP1β wild type (hHP1β WT) (from UniProt P83916 1-185) (natural protein)” yielded a half-maximal effect in the chromatin precipitation (sedimentation) assay, 150 mM NaCl, 4°C in [8] of 0.4 µM. Also, the half-maximal effect on the hydrodynamic radius of oligonucleosomes by FCS, 150 mM NaCl, 23°C in experiment [8] was 3.5 µM. The Kd stood at 59 µM in experiment [2]; 11 µM with H3KC9me3 tail peptide [9]; 1400 nM in experiment [3]; 22 µM in [4]; 11 µM in [5]; 21 µM with H3KC9me3 tail peptide [10]. Besides, in [7], the Kd was 1 µM. Besides, the stoichiometry N in experiment [2] stood at 2.1; with H3KC9me3 tail peptide [9] it was 1; in experiment [3], 0.9; in [4] it was 1.4; in experiment [5] it was 1.9; with H3KC9me3 tail peptide [10], 1. Also, the stoichiometry N in [6] was found to be 1. For the same substance, the stoichiometry N (molecules per nucleosome) in [1] is 2.
